Results reported in PMC13408441, “Molecular regulation and physiological role of GOLPH3-mediated Golgi retention” (Nature Communications, 2026).
Entries after “also recorded” stand apart in the source; their conditions may differ.

Assays:
LCS = assay: ITC of GOLPH3 mutants with LCS peptide; type: binding; conditions: 25 °C, pH 8.0, relative to non-mutated GOLPH3
Experimental: (§1) Supplemental Material for Theodoropoulou, Nasrallah, et al 2026
(§2) Isothermal titration calorimetry
(§3) Isothermal titration calorimetry (ITC) experiments were performed on a MicroCal PEAQ-ITC (Malvern Panalytical), with GOLPH3 variants being in a buffer containing 250 mM NaCl, 50 mM Tris pH 8.0 and 1 mM TCEP. LCS peptides were synthesised and delivered as lyophilised powder (Genscript). The peptides were dissolved in the protein buffer and their concentrations were calculated based upon their absorbance at 280 nm and their corresponding molar extinction coefficient. Experiments consisted of titrations of a single 0.4 µL injection followed […]
(§4) GOLPH3 proteins at a 100 μM concentration. Experiments were performed at 25 °C in triplicate (n = 3), with injection duration of 4 s, injection spacing of 150 s, stir speed of 750 rpm, and reference power of 7 μcal/s. Data were processed and plotted using MicroCal PEAQ‐ITC Analysis Software and fitted to a one‐site binding model.
(§5) Circular Dichroism Spectroscopy
(§6) Circular Dichroism Spectra of GOLPH3 proteins (at 10 μM in 100 mM NaCl, 50 mM Tris pH 7.4 and 1 mM TCEP) were collected with a Chirascan V100 (AppliedPhotophysics), using a 1 mm path length cuvette, at 20 °C, in the 200-260 nm range. Thermal denaturation experiments […]
(§7) every 1 °C, with a temperature ramp speed of 1 °C/min and an equilibration time of […]
(§8) Table S2: Fits of CD spectra to fractions of secondary structure for Golph3 WT and various mutants of it, carried out with the BestSel server

[1] = CD secondary structure of GOLPH3 proteins (BestSel fits); type: physicochemical, human; conditions: 10 μM, 100 mM NaCl, 50 mM Tris pH 7.4, 1 mM TCEP, 20 °C
Experimental: as §1
Isothermal titration calorimetry […]
as §5, §6, §7, §8

HeLa cells = assay: Immunofluorescence of GOLPH3 Golgi localization; type: cell-based, human; conditions: quantitative immunofluorescence
Experimental: as §1
(Sigma, E4382), 5 mL of 1% Phloxine B (Fluka, 28550), 360 mL of 95% ethanol, and 2 mL of glacial acetic acid. Slides were then washed in distilled water, dehydrated, cleared in xylene, and mounted using Eukitt mounting medium (Sigma-Aldrich).
For Alcian Blue staining, sections were deparaffinized, rehydrated, and incubated for 25 minutes at room temperature in 1% Alcian Blue (Sigma-Aldrich, A5268) dissolved in 3% acetic acid (pH 2.5). The solution was filtered prior to use and prepared by dissolving 5 g of Alcian Blue in 500 mL of 3% glacial acetic acid. After staining, slides were washed in running tap water for 5 minutes and briefly rinsed in distilled water. Nuclei were counterstained with 0.1% nuclear fast red (Vector Laboratories, H-3403) for 5 minutes, followed by rinsing, dehydration, clearing, and mounting with Eukitt. Acidic mucopolysaccharides and mucins […]
Immunofluorescence and confocal microscopy
HeLa GOLPH3-KO cells transfected with the different GOLPH3 constructs were plated at approximately 50% confluency post-transfection. Cells were washed with PBS, fixed in 4% paraformaldehyde (PFA) for 20 minutes, washed with PBS, quenched with 50 mM NH4Cl for 10 minutes, and washed again with PBS. Cells were permeabilized with 0.05% saponin in PBS for 5 minutes. Subsequently, cells were washed and blocked with 3% BSA and 0.05% saponin in PBS for 30 minutes. Primary antibodies (anti-GOLPH3 and anti-GM130) and secondary antibodies were diluted in the same buffer. After blocking, coverslips were washed and incubated with primary antibodies overnight at 4 °C, washed in PBS, and incubated for 45 minutes with secondary antibodies. Cells were then washed and stained with Hoechst for nuclear visualization. Finally, coverslips were mounted in Prolong Glass Antifade Mountant.
Images were acquired using a Zeiss LSM 980 Inverted microscope with a 63X objective, a pinhole size of 1 AU and at least 2 line-averaging or alternatively using Oympus Evident FV4000. Super-resolution images were taken using Zeiss LSM980 with Airyscan2 module, with 63×oil-immersion objectives. Images were processed using Fiji (ImageJ). Cis-to-trans Golgi linescans were recorded using the “Color Profiler” plugin (Color_Profiler. jar, https://imagej.nih.gov/ij/plugins/color -profiler.html) in Fiji software.
Forty-eight hours after transfection, cells were harvested by trypsinization, fixed 10 minutes in 4% PFA/PBS, washed, and resuspended in PBS containing 1% BSA.

GOLPH3-KO HeLa cells = assay: 3H-palmitate metabolic labeling of GOLPH3 mutants; type: cell-based, human; conditions: 3H-palmitic acid 3 h, autoradiography after immunoprecipitation
Experimental: To detect palmitoylation, HeLa WT or GOLPH3-KO cells were transfected or not with different GOLPH3 constructs, incubated for 3 h in IM (Glasgow minimal essential medium buffered with 10 mM Hepes, pH 7.4) with 200 mCi/ml ^3H palmitic acid (9,10-^3H(N)) (American Radiolabeled Chemicals, Inc.). The cells were washed and directly lysed for immunoprecipitation with the anti-GOLPH3 rabbit antibody. […] After SDS-PAGE, the gel was incubated in a fixative solution (25% isopropanol, 65% H2O, 10% acetic acid), followed by a 30-min incubation with signal enhancer Amplify NAMP100 (GE Healthcare). […] Quantification of radioactive experiments was quantified using specific screens by autoradiography. The images shown for ^3H-palmitate labeling were however obtained using fluorography (indirect detection of radioactive emission by stimulated light emission from a fluorophore (Amplify) on film).

[2] = CD thermal denaturation of GOLPH3 proteins; type: physicochemical, human; conditions: CD at 207 nm, 20 to 95 °C at 1 °C/min, 10 μM protein, 100 mM NaCl, 50 mM Tris pH 7.4, 1 mM TCEP
Experimental: as §1, §2, §3, §4, §5, §6, §7, §8

| Molecule | binding of GOLPH3 mutants to LCS (LCS) | % alpha [1] | % beta parallel [1] | % beta-antiparallel [1] | % others [1] | % turn [1] | Golgi localization of GOLPH3 mutants (HeLa cells) | palmitoylation of GOLPH3 mutants (GOLPH3-KO HeLa cells) | Tm / melting temperature [2] |
| --- | --- | --- | --- | --- | --- | --- | --- | --- | --- |
| D247A: GOLPH3 mutant D247A; recombinant in biophysics, transfected construct in cells (protein, UniProt Q9H4A6 1-298, looked up, variant D247A) Golgi phosphoprotein 3: MTSLTQRSSGLVQRRTEASRNAADKERAAGGGAGSSEDDAQSRRDEQDDDDKGDSKETRLTLMEEVLLLGLKDREGYTSFWNDCISSGLRGCMLIELALRGRLQLEACGMRRKSLLTRKVICKSDAPTGDVLLDEALKHVKETQPPETVQNWIELLSGETWNPLKLHYQLRNVRERLAKNLVEKGVLTTEKQNFLLFDMTTHPLTNNNIKQRLIKKVQEAVLDKWVNDPHRMDRRLLALIYLAHASAVLENAFAPLLDEQYDLATKRVRQLLDLDPEVECLKANTNEVLWAVVAAFTK | reduced binding | 36% | 0% | 8% | 44% | 12% |  |  |  |
| C108A: GOLPH3 S-acylation mutant C108A, transfected construct (protein, UniProt Q9H4A6 1-298, looked up, variant C108A) Golgi phosphoprotein 3: MTSLTQRSSGLVQRRTEASRNAADKERAAGGGAGSSEDDAQSRRDEQDDDDKGDSKETRLTLMEEVLLLGLKDREGYTSFWNDCISSGLRGCMLIELALRGRLQLEAAGMRRKSLLTRKVICKSDAPTGDVLLDEALKHVKETQPPETVQNWIELLSGETWNPLKLHYQLRNVRERLAKNLVEKGVLTTEKQNFLLFDMTTHPLTNNNIKQRLIKKVQEAVLDKWVNDPHRMDRRLLALIYLAHASDVLENAFAPLLDEQYDLATKRVRQLLDLDPEVECLKANTNEVLWAVVAAFTK |  |  |  |  |  |  | increased Golgi localization | modest effect |  |
| R90L: GOLPH3 mutant defective in PtdIns(4)P binding (protein, UniProt Q9H4A6 1-298, looked up, variant R90L) Golgi phosphoprotein 3: MTSLTQRSSGLVQRRTEASRNAADKERAAGGGAGSSEDDAQSRRDEQDDDDKGDSKETRLTLMEEVLLLGLKDREGYTSFWNDCISSGLLGCMLIELALRGRLQLEACGMRRKSLLTRKVICKSDAPTGDVLLDEALKHVKETQPPETVQNWIELLSGETWNPLKLHYQLRNVRERLAKNLVEKGVLTTEKQNFLLFDMTTHPLTNNNIKQRLIKKVQEAVLDKWVNDPHRMDRRLLALIYLAHASDVLENAFAPLLDEQYDLATKRVRQLLDLDPEVECLKANTNEVLWAVVAAFTK |  |  |  |  |  |  | largely abolished Golgi localization |  |  |
| D247R/D258R/D262R: recombinant GOLPH3 triple mutant D247R/D258R/D262R (protein, UniProt Q9H4A6 1-298, looked up, variant D247R D258R D262R) Golgi phosphoprotein 3: MTSLTQRSSGLVQRRTEASRNAADKERAAGGGAGSSEDDAQSRRDEQDDDDKGDSKETRLTLMEEVLLLGLKDREGYTSFWNDCISSGLRGCMLIELALRGRLQLEACGMRRKSLLTRKVICKSDAPTGDVLLDEALKHVKETQPPETVQNWIELLSGETWNPLKLHYQLRNVRERLAKNLVEKGVLTTEKQNFLLFDMTTHPLTNNNIKQRLIKKVQEAVLDKWVNDPHRMDRRLLALIYLAHASRVLENAFAPLLREQYRLATKRVRQLLDLDPEVECLKANTNEVLWAVVAAFTK | weaken or abrogate binding | 38% | 0% | 7% | 40% | 15% |  |  | 57 °C |
| C122A: GOLPH3 S-acylation mutant C122A, transfected construct (protein, UniProt Q9H4A6 1-298, looked up, variant C122A) Golgi phosphoprotein 3: MTSLTQRSSGLVQRRTEASRNAADKERAAGGGAGSSEDDAQSRRDEQDDDDKGDSKETRLTLMEEVLLLGLKDREGYTSFWNDCISSGLRGCMLIELALRGRLQLEACGMRRKSLLTRKVIAKSDAPTGDVLLDEALKHVKETQPPETVQNWIELLSGETWNPLKLHYQLRNVRERLAKNLVEKGVLTTEKQNFLLFDMTTHPLTNNNIKQRLIKKVQEAVLDKWVNDPHRMDRRLLALIYLAHASDVLENAFAPLLDEQYDLATKRVRQLLDLDPEVECLKANTNEVLWAVVAAFTK |  |  |  |  |  |  | increased Golgi localization | modest effect |  |
| D247A/D258A/D262A: GOLPH3 triple mutant D247A/D258A/D262A; recombinant in biophysics, transfected in cells (protein, UniProt Q9H4A6 1-298, looked up, variant D247A D258A D262A) Golgi phosphoprotein 3: MTSLTQRSSGLVQRRTEASRNAADKERAAGGGAGSSEDDAQSRRDEQDDDDKGDSKETRLTLMEEVLLLGLKDREGYTSFWNDCISSGLRGCMLIELALRGRLQLEACGMRRKSLLTRKVICKSDAPTGDVLLDEALKHVKETQPPETVQNWIELLSGETWNPLKLHYQLRNVRERLAKNLVEKGVLTTEKQNFLLFDMTTHPLTNNNIKQRLIKKVQEAVLDKWVNDPHRMDRRLLALIYLAHASAVLENAFAPLLAEQYALATKRVRQLLDLDPEVECLKANTNEVLWAVVAAFTK |  | 40% | 0% | 0% | 47% | 13% |  |  |  |
| D247R: recombinant GOLPH3 mutant D247R (protein, UniProt Q9H4A6 1-298, looked up, variant D247R) Golgi phosphoprotein 3: MTSLTQRSSGLVQRRTEASRNAADKERAAGGGAGSSEDDAQSRRDEQDDDDKGDSKETRLTLMEEVLLLGLKDREGYTSFWNDCISSGLRGCMLIELALRGRLQLEACGMRRKSLLTRKVICKSDAPTGDVLLDEALKHVKETQPPETVQNWIELLSGETWNPLKLHYQLRNVRERLAKNLVEKGVLTTEKQNFLLFDMTTHPLTNNNIKQRLIKKVQEAVLDKWVNDPHRMDRRLLALIYLAHASRVLENAFAPLLDEQYDLATKRVRQLLDLDPEVECLKANTNEVLWAVVAAFTK | reduced binding; also recorded: weaken or abrogate binding | 38% | 0% | 0% | 52% | 10% |  |  | 57 °C |
